Measurements from patent publication US20250002574A1.

Target: IL-11 (UniProt P20809)
Assay: ELISA on IL-11, positive control antibody ab130083

Sequence of IL-11 (P20809 22-199 limits assumed): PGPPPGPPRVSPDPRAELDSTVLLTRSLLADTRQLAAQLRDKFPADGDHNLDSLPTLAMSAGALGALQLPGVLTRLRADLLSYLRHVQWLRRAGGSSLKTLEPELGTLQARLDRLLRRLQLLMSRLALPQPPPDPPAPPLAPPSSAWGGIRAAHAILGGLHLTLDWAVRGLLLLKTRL

OD(450 nm) value: 3.62 OD450
Substance: 6D9A1 (Abcam, ab130083) (antibody)
